# Measured values: publication PMC2448379
# Where no end group is shown, it is not given here.
# T1: S. cerevisiae Pex5p TPR domain (305 aa), Gal4p DNA-binding domain fusion (pAH987) (S. cerevisiae)
# T1 sequence (P35056 whole entry, looked up): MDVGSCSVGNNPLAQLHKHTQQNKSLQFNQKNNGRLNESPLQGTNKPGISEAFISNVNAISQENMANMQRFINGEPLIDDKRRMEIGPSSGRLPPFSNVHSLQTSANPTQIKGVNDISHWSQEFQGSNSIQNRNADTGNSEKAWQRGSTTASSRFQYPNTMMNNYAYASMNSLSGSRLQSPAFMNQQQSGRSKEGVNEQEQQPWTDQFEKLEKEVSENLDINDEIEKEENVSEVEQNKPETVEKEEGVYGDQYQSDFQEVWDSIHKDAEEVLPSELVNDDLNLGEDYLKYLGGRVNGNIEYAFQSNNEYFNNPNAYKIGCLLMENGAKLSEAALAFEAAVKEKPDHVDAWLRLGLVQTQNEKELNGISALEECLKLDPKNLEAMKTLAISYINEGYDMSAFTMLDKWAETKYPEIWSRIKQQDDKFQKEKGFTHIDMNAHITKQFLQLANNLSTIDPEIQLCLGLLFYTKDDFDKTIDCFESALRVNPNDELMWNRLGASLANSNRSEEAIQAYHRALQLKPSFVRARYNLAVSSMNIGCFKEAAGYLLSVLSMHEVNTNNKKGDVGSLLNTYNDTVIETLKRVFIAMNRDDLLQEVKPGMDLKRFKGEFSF
# Tests used:
# [1] = target: C. elegans PEX-5 TPR domain (267 aa), Gal4p DNA-binding domain fusion (pSL8) (C. elegans); experiment: two-hybrid; yeast strain PCY3; Pex5 TPR domain in pGBT9 (Gal4p DNA-binding domain) with Gal4p activation domain-peptide fusions in pGAD GH; b-galactosidase activity measured with O-nitrophenyl-b-D-galactoside on cells grown at 30 C in liquid selective medium; mean of three independent experiments per strain; conditions: scale: nmol O-nitrophenyl-b-D-galactoside hydrolysed/min/mg protein
# [2] = target: T1, S. cerevisiae Pex5p TPR domain (305 aa), Gal4p DNA-binding domain fusion (pAH987) (S. cerevisiae); experiment: as above; conditions: scale: nmol O-nitrophenyl-b-D-galactoside hydrolysed/min/mg protein
Binder,b-Galactosidase activity [1],b-Galactosidase activity [2]
Gal4p-GKNRGSESHGSARQKL,57.9,
Gal4p-WYGPGPGCCRRRDLKL (cysteine pairing not given here),4.4,
Gal4p-RQRELSANALGGLAKL,447,
Gal4p-SGGVVARAAKM,293,
Gal4p-TWNRETKGLNAVYGKL,90.3,
Gal4p-CERSKL [Gal4p-CERSKL],,163

# Second part, the binder after the results:
b-Galactosidase activity [1],b-Galactosidase activity [2],Binder
631,,Gal4p-QRKANGRDRGGWWAKL
143,,Gal4p-EGLIVMLERGKL
3.8,,Gal4p-KRVWRRQWSTGRKLKL
352,,Gal4p-NGMTRSGRQGGGFAKL
,39,Gal4p-FEWGSQGWTRGRMHML
